Measurements: patent US20220111042A1, “MANF as a Regulator of Immune System Function” (University of Massachusetts, priority 2014, published 2022)
Where two headings read alike, the source gives them in different places.

Tests used:
[1] = system: MANF expression; conditions: immortalized B cells from 60 human individuals, tunicamycin to induce ER stress vs untreated; cited from earlier work
[2] = system: MANF expression; conditions: male C57BL/6 B cells, B cell activation (CD40 at 65 nM); cited from earlier work
[3] = system: DO 11.10 cells; assay: Dexamethasone dose-response for cell death of DO 11.10 cells; format: cell-based; conditions: dose-response curve
Description: FIGS. 10A-B provides an analysis of MANF's ability to protect DO 11.10 cells from cell death caused by the glucocorticoid dexamethasone. […] DO 11.10 cells were pretreated for 24 hrs with MANF (dose shown; B) and then challenged with 100 nM dexamethasone to induce cell death. *p=0.003; **p=0.019.
(§1) Because MANF is expressed in T cells and is induced when they become activated, experiments were performed to determine whether MANF confers protection to these cells. A dose-response curve was generated with the glucocorticoid dexamethasone to determine the dose that results in ˜50% cell death (24 nM) (FIG. 10A). DO 11.10 cells were then pretreated for 24 hours with 0, 10 ng/mL, 100 ng/mL, 1 μg/mL, 10 μg/mL, or 50 μg/mL MANF before exposure to 100 nM dexamethasone to investigate a protective effect for MANF. […] These are key functional data.

[4] = system: DO 11.10 cells; assay: Ara-C dose-response for cell death of DO 11.10 cells; format: cell-based; conditions: dose-response curve
[5] = system: MANF expression; conditions: mouse splenocytes treated with cyclophosphamide; cited from earlier work
[6] = system: dopaminergic neurons; conditions: cited from earlier work
[7] = system: DO 11.10 cells; assay: MANF pretreatment protecting DO 11.10 cells from Ara-C induced cell death; format: cell-based; conditions: 1, 10, 100 ng/mL MANF, 24 hours pretreatment, then 10 μM Ara-C
Excerpt: FIGS. 11A-B provide an analysis of MANF's ability to protect DO 11.10 cells from cell death caused by the DNA damaging chemotherapeutic drug cytosine arabinoside (Ara-C). […].

[8] = system: midbrain dopaminergic neurons; conditions: primary nigral neuron cell cultures; cited from earlier work
[9] = system: DO 11.10 cells; assay: MANF pretreatment protecting DO 11.10 cells from dexamethasone induced cell death; format: cell-based; conditions: 24 hours pretreatment, then 100 nM dexamethasone
Description: FIGS. 10A-B provides an analysis of MANF's ability to protect DO 11.10 cells from cell death caused by the glucocorticoid dexamethasone. […]. DO 11.10 cells were pretreated for 24 hrs with MANF (dose shown; B) and then challenged with 100 nM dexamethasone to induce cell death. *p=0.003; **p=0.019.
as §1

[10] = system: KLH-specific IgM; assay: KLH-specific IgM ELISA after injection of mice with TNP-KLH/alum with MANF or PBS; format: in vivo; conditions: 8 week old male mice, i.p. 100 μg TNP-KLH with 5% alum plus 200 μL of 1 μg/μL MANF vs PBS; blood seven days later; p=0.0013
Description: FIG. 5 provides an ELISA analysis of anti-KLH specific IgM titers between mice injected with 2,4,6, Trinitrophenyl hapten conjugated Keyhole Limpet Hemocyanin (TNP-KLH) and either 200 μL of 1 μg/μL MANF (KLH-MANF; right) or phosphate buffered saline (KLH-PBS; left). P=0.0013, Student's t-test.
Based on the expression in the non-germinal cells within the lymph nodes it was speculated that MANF might enhance antibody production and provide for faster and/or higher titers of antibodies following exposure to a novel antigen. To test this hypothesis, 8 week old male mice were injected intraperitoneally with 100 μg of sterile TNP-KLH (2,4,6, Trinitrophenyl hapten conjugated Keyhole Limpet Hemocyanin) with 5% alum in the presence of 200 μL of 1 μg/μL MANF or an equal volume of PBS. Blood was sampled via the submandibular vein seven days later and the KLH-specific IgM analyzed using an enzyme linked immunoassays (ELISA) from Life Diagnostics, Inc. The concentration was calculated from a standard curve. A Student's t-test was used to establish statistical significance (p=0.0013).

[11] = injection of MANF into 6-OHDA treated rat brains

## tunicamycin
[1]
  MANF expression: higher levels of MANF expression

## B-cell activating factor: ligand used for B cell activation in ligand screen
[2]
  MANF expression: dramatic, but transient, repression

## C[C@@H]1C[C@H]2[C@@H]3CCC4=CC(=O)C=C[C@]4(C)[C@@]3(F)[C@@H](O)C[C@]2(C)[C@@]1(O)C(=O)CO [dexamethasone]
[3]
  LD50 (dose that results in ~50% cell death): 24 nM

## Nc1ccn([C@@H]2O[C@H](CO)[C@@H](O)[C@@H]2O)c(=O)n1 [Ara-C, cytosine arabinoside]
[4]
  LD50 (dose that results in 50% cell death): ~5 µM

## O=P1(N(CCCl)CCCl)NCCCO1 (centres unmarked) [cyclophosphamide]
[5]
  MANF expression: highly induced

B1: MANF: mesencephalic astrocyte-derived neurotrophic factor, an 18 kDa secreted protein; form used in the tests not stated (protein, UniProt P55145 25-182, looked up)
Mesencephalic …: LRPGDCEVCISYLGRFYQDLKDRDVTFSPATIENELIKFCREARGKENRLCYYIGATDDAATKIINEVSKPLAHHIPVEKICEKLKKKDSQICELKYDKQIDLSTVDLKKLRVKELKKILDDWGETCKGCAEKSDYIRKINELMPKYAPKAASARTDL
[6]; [11]
  behavioral symptoms associated with the disorder: reduced the behavioral symptoms
  loss of dopaminergic neurons: statistically significant reduction
[6]; up to 4 weeks after 6-OHDA treatment
  dopaminergic neuron survival and motor defects: improve dopaminergic neuron survival and correct motor defects
[7]
  protection against Ara-C induced cell death: dose-dependent protection
[8]
  protection of dopaminergic neurons from death: protected these midbrain dopaminergic neurons from death
[9]; 10 ng/mL MANF, p=0.003
  protection against dexamethasone induced cell death: statistically significant, does-dependent protection
[9]; 100 ng/mL MANF, p=0.019
  protection against dexamethasone induced cell death: statistically significant, does-dependent protection
[9]; higher doses of MANF (1, 10, 50 μg/mL)
  protection against dexamethasone induced cell death: No statistically significant effects
[10]
  levels of anti-KLH IgM antibodies: significantly increased
